Consider 1 molecule from article PMC9454738, “An FDA-Approved Antifungal, Ketoconazole, and Its Novel Derivative Suppress tGLI1-Mediated Breast Cancer Brain Metastasis by Inhibiting the DNA-Binding Activity of Brain Metastasis-Promoting Transcrip”.

For this data set, the target named is N-tGLI1 (N-terminal truncated GLI1) (UniProt P08151-2 1-390). Briefly: EMSA; no drug; 5X binding buffer as printed: 50 mM Tris pH 7.5, 50 mM NaCl, 200 mM KCl, 5 mM MgCl2, 10 mM EDTA, 5 mM DTT, 250 ug/mL BSA, 25% glycerol; 50 ng/uL poly dI-dC; ~600 ng protein, 5 pmol probe in 20 uL; 20 min on ice (drug tests: 30 min preincubation on ice for GLI1 or at RT for N-tGLI1, then 30 min with probe); 6% TBE gel. The conditions noted are these: protein: recombinant; tags: MBP tag cleaved with HRV 3C protease; label: 5' 6-FAM on both strands; blunt.
N-tGLI1 (N-terminal truncated GLI1), sequence (P08151 other isoform, or with tags, fused parts or gaps): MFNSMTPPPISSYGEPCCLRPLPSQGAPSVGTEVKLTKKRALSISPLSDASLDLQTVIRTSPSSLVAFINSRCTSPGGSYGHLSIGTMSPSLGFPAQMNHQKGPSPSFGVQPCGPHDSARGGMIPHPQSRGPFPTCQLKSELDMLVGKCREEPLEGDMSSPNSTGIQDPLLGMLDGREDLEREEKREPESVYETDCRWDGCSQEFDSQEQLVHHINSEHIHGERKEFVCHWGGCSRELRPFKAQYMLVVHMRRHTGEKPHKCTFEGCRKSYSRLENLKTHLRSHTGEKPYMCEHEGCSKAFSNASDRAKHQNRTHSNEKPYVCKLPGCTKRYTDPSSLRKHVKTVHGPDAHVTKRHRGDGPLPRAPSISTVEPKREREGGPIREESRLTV

B1: GLI1/tGLI1 consensus probe (dsDNA)
DNA 1: CGAAGAGACCACCCAGGTAGCT
DNA 2: AGCTACCTGGGTGGTCTCTTCG
Take B1: the binding result is given as “binds”.
